Values quoted from earlier work, collected in paper PMC7153410.
Where two headings read alike, the source gives them in different places. Blank lines part the entries; values can stand above or below the substance they belong to.

Legend:
MD-2 [1] = target: MD-2 (UniProt Q9JHF9)
MD-2 [2] = target: MD-2 (UniProt Q9JHF9); remark: listed apart in the source
RAGE (Homo sapiens) [3] = target: RAGE (Homo sapiens) (UniProt Q15109)
TLR4-MD-2 (Homo sapiens) [4] = target: TLR4-MD-2 (Homo sapiens) (UniProt O00206)
Sequence of UniProt O00206 (O00206 24-839, chain 1 of 2): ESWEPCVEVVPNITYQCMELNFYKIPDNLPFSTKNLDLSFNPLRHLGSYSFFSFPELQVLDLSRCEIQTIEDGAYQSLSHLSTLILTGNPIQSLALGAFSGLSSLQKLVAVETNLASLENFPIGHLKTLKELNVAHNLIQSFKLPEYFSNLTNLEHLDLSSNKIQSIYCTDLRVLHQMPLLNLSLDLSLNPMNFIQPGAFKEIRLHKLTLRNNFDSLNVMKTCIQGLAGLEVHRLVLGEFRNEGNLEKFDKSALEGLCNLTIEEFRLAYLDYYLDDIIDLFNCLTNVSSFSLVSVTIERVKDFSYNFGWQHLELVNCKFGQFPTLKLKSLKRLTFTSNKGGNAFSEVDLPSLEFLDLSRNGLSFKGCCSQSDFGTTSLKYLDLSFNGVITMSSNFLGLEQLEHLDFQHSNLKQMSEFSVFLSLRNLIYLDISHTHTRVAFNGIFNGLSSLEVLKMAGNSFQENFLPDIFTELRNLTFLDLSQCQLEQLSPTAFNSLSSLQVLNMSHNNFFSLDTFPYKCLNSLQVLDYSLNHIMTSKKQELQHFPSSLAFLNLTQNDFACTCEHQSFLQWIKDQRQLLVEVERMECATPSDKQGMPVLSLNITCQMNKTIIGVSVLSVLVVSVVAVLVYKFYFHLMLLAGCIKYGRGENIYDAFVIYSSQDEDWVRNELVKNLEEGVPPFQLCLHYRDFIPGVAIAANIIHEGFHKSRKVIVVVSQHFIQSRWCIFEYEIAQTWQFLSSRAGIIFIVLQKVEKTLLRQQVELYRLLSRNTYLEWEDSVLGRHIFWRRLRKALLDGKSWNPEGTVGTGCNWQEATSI
Sequence of UniProt O00206 (Q9Y6Y9 19-160, chain 2 of 2, further chain): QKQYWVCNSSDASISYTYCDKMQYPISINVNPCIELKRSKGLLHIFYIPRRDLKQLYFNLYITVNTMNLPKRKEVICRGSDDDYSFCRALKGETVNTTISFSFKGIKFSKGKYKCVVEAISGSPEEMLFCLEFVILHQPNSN

RAGE (Homo sapiens) [5] = target: RAGE (Homo sapiens) (UniProt Q15109); remark: listed apart in the source
TLR4-MD-2 (Homo sapiens) [6] = target: TLR4-MD-2 (Homo sapiens) (UniProt O00206); remark: listed apart in the source
RAGE (Homo sapiens) [7] = target: RAGE (Homo sapiens) (UniProt Q15109); remark: listed apart in the source

Sequence of UniProt Q15109 (Q15109 23-404): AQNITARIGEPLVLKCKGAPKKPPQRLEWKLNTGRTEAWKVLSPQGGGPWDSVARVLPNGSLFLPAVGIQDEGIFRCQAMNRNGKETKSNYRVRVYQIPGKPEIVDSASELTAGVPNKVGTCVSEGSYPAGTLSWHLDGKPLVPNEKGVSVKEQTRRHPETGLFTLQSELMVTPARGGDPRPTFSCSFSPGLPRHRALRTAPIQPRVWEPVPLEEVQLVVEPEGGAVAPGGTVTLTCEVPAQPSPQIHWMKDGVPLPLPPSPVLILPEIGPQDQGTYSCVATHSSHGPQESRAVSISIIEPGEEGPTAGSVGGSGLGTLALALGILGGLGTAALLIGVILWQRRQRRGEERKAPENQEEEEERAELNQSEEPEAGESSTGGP
Sequence of UniProt Q9JHF9 (Q9JHF9 19-160): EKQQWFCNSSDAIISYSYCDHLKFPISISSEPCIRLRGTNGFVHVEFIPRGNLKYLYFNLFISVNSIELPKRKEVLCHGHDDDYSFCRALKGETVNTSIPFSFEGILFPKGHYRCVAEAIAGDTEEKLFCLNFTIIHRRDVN

Substance: SAA3 43-57 (from UniProt P04918)
Kd (MD-2 [1]): 30000 nM

Substance: S100A8-S100A9 (from UniProt P05109)
Kd (TLR4-MD-2 (Homo sapiens) [4]): 3.8 nM
Kd (RAGE (Homo sapiens) [5]): 9.4 nM

Next, values leading:

Kd (MD-2 [2]): 730 nM
Substance: S100A8 2-89 (from UniProt P27005)

Kd (RAGE (Homo sapiens) [3]): 90 nM
Substance: S100A12 (from UniProt P80511)

Kd (TLR4-MD-2 (Homo sapiens) [6]): 2.1 nM
Kd (RAGE (Homo sapiens) [7]): 38 nM
Substance: S100A9 (from UniProt P06702)
